Literature values as cited in PMC8384639.

Target: Histone H3 K4me3 peptide 1-15 (Homo sapiens) (UniProt P68431)

BPTF PHD (from UniProt Q12830)
Kd: 2700 nM
